The values that follow are results of earlier work, collected in paper PMC6611644.

This data set addresses GPIbα (Homo sapiens) (UniProt P07359). The data set can be described thus: SPR. In general terms: Surface plasmon resonance follows binding to a sensor surface in real time, without labels.

Values joined by “and” are separate entries in the source; they are usually repeats but may differ in a detail not shown here. Equal entries are not always repeated.

Chain of UniProt P07359 (P07359 17-306): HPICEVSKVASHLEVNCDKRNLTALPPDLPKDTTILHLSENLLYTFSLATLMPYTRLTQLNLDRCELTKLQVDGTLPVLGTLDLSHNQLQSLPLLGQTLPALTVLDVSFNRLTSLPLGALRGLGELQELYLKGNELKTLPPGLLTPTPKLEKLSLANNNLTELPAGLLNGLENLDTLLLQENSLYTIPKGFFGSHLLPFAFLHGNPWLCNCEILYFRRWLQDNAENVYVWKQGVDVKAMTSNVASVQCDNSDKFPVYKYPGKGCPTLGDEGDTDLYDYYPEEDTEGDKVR

As a reminder, the Kd is the equilibrium constant for the complex coming apart. Consider GspB BR (from UniProt Q939N5), for which the Kd was 23.8 nM.

Consider Hsa BR (from UniProt A8AWU7), for which the Kd is 5.05 nM and 30.5 nM.
